Results on one substance are retold here after ChEMBL document CHEMBL5649167, “The SUV4-20 inhibitor A-196 verifies a role for epigenetics in genomic integrity” (Nat Chem Biol, 2017).

The test system of series [1] is Clc1cc2c(NC3CCCC3)nnc(-c3ccncc3)c2cc1Cl. The conditions noted are these: Homo sapiens; time 2.0 hrs.
Series [2] has the same test system. The settings on record: Homo sapiens; time 2.0 hrs. This is another data set of the same source.

What is called Km is the substrate concentration at which the rate is half of its maximum.

Chain of Histone-lysine N-methyltransferase KMT5B (Homo sapiens), Q4FZB7 (Q4FZB7 whole entry): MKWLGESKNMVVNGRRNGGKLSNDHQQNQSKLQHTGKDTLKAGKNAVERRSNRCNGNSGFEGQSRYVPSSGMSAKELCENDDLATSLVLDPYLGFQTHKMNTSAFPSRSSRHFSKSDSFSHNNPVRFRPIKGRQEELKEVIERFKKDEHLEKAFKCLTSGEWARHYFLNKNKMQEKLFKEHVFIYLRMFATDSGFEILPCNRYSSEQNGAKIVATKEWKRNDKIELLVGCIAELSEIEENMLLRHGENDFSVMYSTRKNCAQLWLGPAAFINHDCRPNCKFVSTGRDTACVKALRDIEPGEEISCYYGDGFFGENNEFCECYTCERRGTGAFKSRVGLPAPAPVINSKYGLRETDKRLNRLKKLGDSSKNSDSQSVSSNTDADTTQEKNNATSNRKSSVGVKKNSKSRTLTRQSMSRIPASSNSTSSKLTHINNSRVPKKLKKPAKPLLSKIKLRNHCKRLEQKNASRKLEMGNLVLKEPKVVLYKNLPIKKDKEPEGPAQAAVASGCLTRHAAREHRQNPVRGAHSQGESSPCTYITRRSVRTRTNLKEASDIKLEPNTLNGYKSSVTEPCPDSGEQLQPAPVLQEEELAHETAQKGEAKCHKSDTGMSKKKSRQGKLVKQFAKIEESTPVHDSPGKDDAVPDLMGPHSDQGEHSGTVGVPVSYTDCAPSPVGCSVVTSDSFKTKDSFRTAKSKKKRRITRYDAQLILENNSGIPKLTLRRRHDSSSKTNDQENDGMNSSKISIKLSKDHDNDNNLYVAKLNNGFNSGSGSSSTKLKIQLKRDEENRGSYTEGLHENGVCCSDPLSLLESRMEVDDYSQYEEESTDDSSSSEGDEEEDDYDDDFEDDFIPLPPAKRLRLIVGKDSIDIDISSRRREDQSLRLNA

As for “Histone-lysine N-methyltransferase KMT5B (Homo sapiens), Q4FZB7”, the Km in series [1] turned out to be 0.0748 µM; in series [2] it was 0.0278 µM.
